We go through 7 variants from FireProtDB (doi:10.1002/pro.5560070624).

The labels stand for the following.
B1: Ferrienterobactin receptor, P05825 (parent)
chain: MNKKIHSLALLVNLGIYGVAQAQEPTDTPVSHDDTIVVTAAEQNLQAPGVSTITADEIRKNPVARDVSKIIRTMPGVNLTGNSTSGQRGNNRQIDIRGMGPENTLILIDGKPVSSRNSVRQGWRGERDTRGDTSWVPPEMIERIEVLRGPAAARYGNGAAGGVVNIITKKGSGEWHGSWDAYFNAPEHKEEGATKRTNFSLTGPLGDEFSFRLYGNLDKTQADAWDINQGHQSARAGTYATTLPAGREGVINKDINGVVRWDFAPLQSLELEAGYSRQGNLYAGDTQNTNSDSYTRSKYGDETNRLYRQNYALTWNGGWDNGVTTSNWVQYEHTRNSRIPEGLAGGTEGKFNEKATQDFVDIDLDDVMLHSEVNLPIDFLVNQTLTLGTEWNQQRMKDLSSNTQALTGTNTGGAIDGVSTTDRSPYSKAEIFSLFAENNMELTDSTIVTPGLRFDHHSIVGNNWSPALNISQGLGDDFTLKMGIARAYKAPSLYQTNPNYILYSKGQGCYASAGGCYLQGNDDLKAETSINKEIGLEFKRDGWLAGVTWFRNDYRNKIEAGYVAVGQNAVGTDLYQWDNVPKAVVEGLEGSLNVPVSETVMWTNNITYMLKSENKTTGDRLSIIPEYTLNSTLSWQAREDLSMQTTFTWYGKQQPKKYNYKGQPAVGPETKEISPYSIVGLSATWDVTKNVSLTGGVDNLFDKRLWRAGNAQTTGDLAGANYIAGAGAYTYNEPGRTWYMSVNTHF

In this data set the parent is B1. The settings on record: Escherichia coli (strain K12); pH 7; 25 °C; GdnHCl; ESR; MOPS 20 mM; structure 1FEP; whole UniProt chain shown.

Regarding Q278C, the denaturant m value came to 1.31 kcal/mol/M and the “denaturant midpoint (higher = more stable)” value (“denaturant midpoint” for short) was 1.91 M.
Turning to S276C, the denaturant m value was determined as 4.61 kcal/mol/M and the “denaturant midpoint” value turned out to be 1.29 M.
On the same counts, the results for S268C are 4.21 kcal/mol/M and 1.77 M.
The corresponding values for L266C are 3.25 kcal/mol/M and 2.28 M.
On the same counts, the results for G274C are 5.28 kcal/mol/M and 1.5 M.
For the variant E270C, the denaturant m value was found to be 4.08 kcal/mol/M and the “denaturant midpoint” value amounted to 1.65 M.
Take E272C: the denaturant m value is 5.76 kcal/mol/M and the “denaturant midpoint” value came to 1.57 M.
